Data on two molecules can be found in US20250035633A1 (published 2025).

Like-named read-outs stand apart in the source and are kept apart here.

Experiment [1] has as its target T1, recombinant CDH17-hFc (human, UniProt Q12864 23-787). The experiment can be described thus: ELISA.
The target in experiment [2] is T1, recombinant CDH17-hFc. Description: OCTET BLI.
Experiment [3] concerns the target T1, recombinant CDH17-hFc. Description: OCTET BLI. This is another data set of the same source.
The target in experiment [4] is T1, recombinant CDH17-hFc. Description: ELISA. This is another data set of the same source. On the technique in general: ELISA stands for enzyme-linked immunosorbent assay.

T1 sequence (Q12864 23-787): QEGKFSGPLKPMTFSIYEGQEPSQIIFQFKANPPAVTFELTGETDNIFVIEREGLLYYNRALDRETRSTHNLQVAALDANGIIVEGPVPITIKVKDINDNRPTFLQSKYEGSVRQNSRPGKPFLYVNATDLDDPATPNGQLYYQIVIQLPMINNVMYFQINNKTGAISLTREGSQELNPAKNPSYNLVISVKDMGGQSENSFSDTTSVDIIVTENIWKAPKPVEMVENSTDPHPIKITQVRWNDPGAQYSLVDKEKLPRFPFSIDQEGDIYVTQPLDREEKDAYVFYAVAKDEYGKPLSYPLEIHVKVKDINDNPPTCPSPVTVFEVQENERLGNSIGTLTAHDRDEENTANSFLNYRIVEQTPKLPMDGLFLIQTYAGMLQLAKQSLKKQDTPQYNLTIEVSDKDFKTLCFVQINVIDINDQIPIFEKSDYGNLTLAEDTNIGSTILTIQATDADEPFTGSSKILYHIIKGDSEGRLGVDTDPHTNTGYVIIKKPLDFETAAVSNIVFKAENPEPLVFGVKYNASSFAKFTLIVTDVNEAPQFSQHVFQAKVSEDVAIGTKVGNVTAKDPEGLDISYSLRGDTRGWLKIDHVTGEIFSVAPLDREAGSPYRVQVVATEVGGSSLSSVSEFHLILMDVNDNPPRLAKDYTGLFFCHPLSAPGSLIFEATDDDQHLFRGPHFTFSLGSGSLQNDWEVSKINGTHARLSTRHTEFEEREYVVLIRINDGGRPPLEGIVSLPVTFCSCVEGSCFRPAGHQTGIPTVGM

B1: m7C5 (antibody, V domains shown)
VH: QVQLQQSGAELARPGASVKLSCKASGYTFTSYGLSWVKQRTGQGLEWIGEIFPRSGNSYYNEKFKGKAALTADKSSSTAYMQLSSLTSEDSAVYFCARHYYSSLYYAMDYWGQGTSVTVSS
VL: DIQVTQSPASLSASVGESVSITCGTNENLYGALNWYQRKQGKSPQLLIYGATNLADGMSSRFSGSGSGRQYSLKISSLHPDDVATYYCQNVLSTPRTFGGGTKLEIK
As to B1, the EC50 with recombinant CDH17-hFc [1] was found to be 4.2 ng/mL. Further, the Kd with recombinant CDH17-hFc [2] worked out at 20.6 nM.

B2: mLic3 (antibody, V domains shown)
VH: EVQLVESGGGLVKPGGSLKLSCAASGFSFSDYYMYWVRQAPEKRLEWVASISFDGTYTYYTDRVKGRFTISRDNAKNNLYLQMSSLKSEDTAMYYCARDRPAWFPYWGQGTLVTVSA
VL: DVLMTQIPLSLTVSLGDQASISCRSSQSIVHSNGNTYLEWYLQRPGQSPKLLIYKVSNRFSGVPDRFSGSGSGTDFTLKISRVEAEDLGVYYCFQGSHVPLTFGAGTKLELK
For the molecule B2, the Kd with recombinant CDH17-hFc [3] was 10.9 nM. In the experiment with recombinant CDH17-hFc [4], the EC50 worked out at 7.9 ng/mL.

A word on the EC50: it is the concentration at which the effect is half-maximal. As a reminder, the Kd is the equilibrium constant for the complex coming apart.
